The values that follow come from publication PMC3983046.

In data set [1] the target is Ash2LN K225E (human, UniProt Q9UBL3 95-280, K225E). As to the kind of experiment: EMSA.
Data set [2] addresses Ash2LN K229E (human, UniProt Q9UBL3 95-280, K229E). As to the kind of experiment: EMSA.

Chain of Ash2LN K229E (Q9UBL3 95-280 K229E): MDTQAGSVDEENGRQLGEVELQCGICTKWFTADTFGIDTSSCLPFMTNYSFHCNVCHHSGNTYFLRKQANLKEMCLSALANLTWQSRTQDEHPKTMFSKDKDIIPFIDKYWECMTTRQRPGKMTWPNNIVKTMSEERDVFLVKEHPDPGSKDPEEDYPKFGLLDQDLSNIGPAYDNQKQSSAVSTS
Chain of Ash2LN K225E (Q9UBL3 95-280 K225E): as the sequence (Q9UBL3 95-280 K229E) above, with K131E, E135K counted along it

B1: HS2 (dsDNA)
DNA 1: GCAATGCTGAGTCATGATGAGTCATGCTGAGGCTTAGGGTGTGTGC
DNA 2: GCACACACCCTAAGCCTCAGCATGACTCATCATGACTCAGCATTGC
B1: the binding result in data set [1] and in data set [2] was “no binding” each time.
